The record followed here is patent publication US20250277054A1 (WUXI BIOLOGICS IRELAND, published 2025).

Where two headings read alike, the source gives them in different places.

Test [1] has as its target T1, Cyno PSMA.ECD.His (Acro) (cynomolgus, UniProt A0A2K5VNZ0 44-750).
T1 construct: extracellular domain; Bought protein with His tag; also called cynomolgus PSMA ECD protein; Cynomolgus PSMA/FOLH1 protein, His tag
The test can be described thus: ELISA, coated cynomolgus PSMA protein (His tag). As to the method: (§1) Briefly, 1 μg/mL cynomolgus PSMA protein (His tag) and 2 μg/mL mouse PSMA protein (His tag) were coated onto wells in an ELISA plate in coating buffer at 4° C. for 16 hours. After washing plate with 1×PBST once, the plate was blocked by using 200 μL/well 2% BSA for one hour. […] After washing three times with 1×PBST, Goat anti-human-IgG-Fc-HRP (at 1:5000 dilution) was added and incubated for one hour. After washing six times with 1×PBST, 100 μL/well of TMB substrate solution was added into wells and incubated for 5 minutes in dark and then 100 μL/well of 2M HCL were added into wells to stop the reaction. The relative light unit (RLU) was measured at OD₄₅₀ and OD₅₄₀ by SPECTRAMAX M5E. EC₅₀ was determined as described above.
(In general: An ELISA detects its analyte on a solid surface through an enzyme-linked reagent.)

The target of test [2] is T2, human PSMA on human prostate cancer cells (LNCaP, C4-2, 22Rv1) (human, UniProt Q04609 1-750).
T2 construct: whole, on cells; also called human PSMA-expressing LNCaP cells; C4-2 (PSMA High)
The test can be described thus: flow cytometry on C4-2 cells (PSMA high). The procedure: (§2) After washing twice with 1×PBS/1% BSA/0.1 mM EDTA, Alexa fluor 647-labeled goat anti-human IgG Fc (at 1:500 dilution) was added and the plate was incubated at 4° C. for half an hour in dark. After washing twice with 1×PBS/1% BSA/0.1 mM EDTA, cells were re-suspended in 1×PBS/1% BSA/0.1 mM EDTA, and mean fluorescence intensity (MFI) was measured by a flow cytometer and analyzed by FLOWJO. The binding EC₅₀ was calculated by GraphPad Prism 7 software by plotting antibody concentration (x-axis) versus […] (y-axis) and analyzing as: Nonlinear regression (curve fit)-log (agonist) vs. response-Variable slope (four parameters).
A general note: In flow cytometry, cells or beads pass a laser one at a time.

For test [3], the target named is T3, Biotinylated Human PSMA/FOLH1 Protein, His, Avitag (human, UniProt Q04609 44-750, biotin label (Avitag)).
T3 construct: Bought protein; also called Human PSMA Protein (His Tag & biotin label)
The test can be described thus: SPR (Biacore 8K), biotinylated human PSMA captured on streptavidin chip, antibody injected, single-cycle, 1:1 model. The procedure:
Biotinylated human PSMA was captured on a streptavidin-immobilized CM5 sensor chip (Cytiva). Antibodies at different concentrations were injected over the sensor chip in an injection type of single-cycle at a flow rate of 30 μL/min for an association phase of 180 s, followed by 600-3600 s dissociation. The chip was then regenerated by 10 mM glycine (pH1.5) at the last binding cycle.
The sensorgrams of the blank surface and buffer channel were subtracted from the test sensorgrams. The experimental data were fitted by 1:1 binding model.
(Surface plasmon resonance follows binding to a sensor surface in real time, without labels.)

Test [4] has as its target T4, Human PSMA.ECD.His (Acro) (human, UniProt Q04609 44-750).
T4 construct: extracellular domain; Bought protein with His tag; also called human PSMA ECD protein; Human PSMA/FOLH1 protein, His tag
The test can be described thus: ELISA, coated human PSMA protein (His tag). As to the method: (§3) Briefly, 1 μg/mL human PSMA protein (His tag) were coated onto wells in ELISA plate in coating buffer at 4° C. for 16 hours. After washing the plate with 1×PBST once, the plate was blocked by using 200 μL/well 2% BSA for one hour. After washing the plate for three times with 1×PBST, various concentrations of antibodies diluted in 2% BSA (5-fold serially diluted from 200 nM to 0.004096 pM) were added to the wells and the plate was incubated for one hour at ambient temperature. After washing the plate three times with 1×PBST, Goat anti-human-IgG-Fc-HRP (at 1:5000 dilution) was added into wells and incubated for one hour. After washing six times with 1×PBST, 100 μL/well of TMB substrate solution was added into wells and incubated for 5 minutes in dark and then 100 μL/well of 2M HCl was added into wells to stop the reaction. The relative light unit (RLU) was measured at OD₄₅₀ and OD₅₄₀ by SPECTRAMAX M5E. The binding EC₅₀ was calculated by GraphPad Prism 7 software by plotting antibody concentration (x-axis) versus OD₄₅₀₋₅₄₀ (y-axis) and analyzing as: Nonlinear regression (curve fit)-log (agonist) vs. response-Variable slope (four parameters).

Test [5] concerns the target T5, Mouse PSMA.ECD.His (Acro) (mouse, UniProt O35409 45-752).
T5 construct: extracellular domain; Bought protein with His tag; also called mouse PSMA protein (His tag); Mouse PSMA/FOLH1 protein, His tag
Briefly: ELISA, coated mouse PSMA protein (His tag). As to the method: as §1

For test [6], the target named is T2, human PSMA on human prostate cancer …. Briefly: cell-based or functional assay.
Test [7] shares this target. The test can be described thus: flow cytometry on 22Rv1 cells (PSMA low). As to the method: as §2
Test [8] addresses T6, full-length cynomolgus PSMA on Flp-in CHO cells (WBP3xx042-FlpinCHO.cPro1.B7) (cynomolgus, UniProt A0A2K5VNZ0 1-750).
T6 construct: whole, on cells; also called Cyno PSMA+ CHO cells; FlpInCHO-cyno PSMA
Briefly: flow cytometry on FlpInCHO-cyno PSMA cells. The procedure:
WBP3xx042-FlpinCHO.cPro1.B7 (5×10⁴ cells) was incubated with various concentrations of antibodies 4° C. for one hour. After washing twice with 1×PBS/1% BSA/0.1 mM EDTA, secondary antibody, Alexa fluor 647-labeled goat anti-human IgG Fc, was added and the plate was incubated at 4° C. for half an hour in dark. After washing twice with 1×PBS/1% BSA/0.1 mM EDTA, cells were re-suspended in 1×PBS/1% BSA/0.1 mM EDTA. MFI and EC₅₀ were determined as described above.

The target of test [9] is T7, Human CD3δ & CD3ε heterodimer protein (Flag & His Tag) (human, UniProt P04234 22-105; P07766 23-126).
T7 construct: Bought heterodimer with Flag and His tags
The test can be described thus: SPR (Biacore 8K), antibody captured by anti-human IgG Fc, CD3δ & CD3ε heterodimer injected, 1:1 model. As to the method:
Each antibody was captured on an anti-human IgG Fc antibody immobilized CM5 sensor chip (Cytiva). human CD3δ & CD3ε heterodimer at different concentrations were injected over the sensor chip at a flow rate of 30 μL/min for an association phase of 120 s, followed by 240 s dissociation. The chip was regenerated by 10 mM glycine (pH 1.5) after each binding cycle.
The sensorgrams of blank surface and buffer channel were subtracted from the test sensorgrams. The experimental data was fitted by 1:1 binding model. Molecular weight of 31 kDa was used to calculate the molar concentration of human CD3δ & CD3ε heterodimer.

The target in test [10] is T2, human PSMA on human prostate cancer …. The test can be described thus: flow cytometry on LNCaP cells (PSMA high). The procedure: as §2
Test [11] has the same target. The test can be described thus: cell-based or functional assay. This is another data set of the same source.
The target of test [12] is T4, Human PSMA.ECD.His (Acro). The test can be described thus: ELISA, coated human PSMA protein (His tag). The procedure: as §3
This is another data set of the same source.

The target of test [13] is T1, Cyno PSMA.ECD.His (Acro). The test can be described thus: ELISA, coated cynomolgus PSMA protein (His tag). As to the method:
as §1
This is another data set of the same source.

T7 sequence (P04234 22-105, stated change not applied, form in doubt, chain 1 of 2): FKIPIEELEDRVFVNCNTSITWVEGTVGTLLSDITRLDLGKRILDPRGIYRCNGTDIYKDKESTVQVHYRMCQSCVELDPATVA
T7 sequence (P07766 23-126, stated change not applied, form in doubt, chain 2 of 2): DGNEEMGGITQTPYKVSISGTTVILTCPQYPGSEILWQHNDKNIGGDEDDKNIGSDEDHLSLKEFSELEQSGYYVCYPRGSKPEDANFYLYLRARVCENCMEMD
T3 sequence (Q04609 44-750 limits assumed): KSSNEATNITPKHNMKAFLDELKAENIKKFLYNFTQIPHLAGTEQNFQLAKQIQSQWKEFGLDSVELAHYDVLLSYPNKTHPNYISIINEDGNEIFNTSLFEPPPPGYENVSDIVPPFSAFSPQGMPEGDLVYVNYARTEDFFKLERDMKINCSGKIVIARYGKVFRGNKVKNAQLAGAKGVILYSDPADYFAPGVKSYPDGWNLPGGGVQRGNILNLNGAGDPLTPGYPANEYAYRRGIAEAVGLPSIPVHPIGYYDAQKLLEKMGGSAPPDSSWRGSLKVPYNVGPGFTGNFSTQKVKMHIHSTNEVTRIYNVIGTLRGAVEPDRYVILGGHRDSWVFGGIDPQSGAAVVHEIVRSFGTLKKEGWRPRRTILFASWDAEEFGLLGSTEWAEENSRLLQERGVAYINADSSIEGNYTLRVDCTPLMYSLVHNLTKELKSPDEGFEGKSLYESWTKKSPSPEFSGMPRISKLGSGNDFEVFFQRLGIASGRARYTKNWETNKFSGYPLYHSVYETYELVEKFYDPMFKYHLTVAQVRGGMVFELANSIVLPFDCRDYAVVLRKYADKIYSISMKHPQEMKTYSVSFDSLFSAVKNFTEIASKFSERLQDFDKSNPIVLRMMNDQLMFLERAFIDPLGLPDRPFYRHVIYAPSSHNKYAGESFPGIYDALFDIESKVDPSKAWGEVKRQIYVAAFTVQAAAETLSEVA
T2 sequence (Q04609 whole entry): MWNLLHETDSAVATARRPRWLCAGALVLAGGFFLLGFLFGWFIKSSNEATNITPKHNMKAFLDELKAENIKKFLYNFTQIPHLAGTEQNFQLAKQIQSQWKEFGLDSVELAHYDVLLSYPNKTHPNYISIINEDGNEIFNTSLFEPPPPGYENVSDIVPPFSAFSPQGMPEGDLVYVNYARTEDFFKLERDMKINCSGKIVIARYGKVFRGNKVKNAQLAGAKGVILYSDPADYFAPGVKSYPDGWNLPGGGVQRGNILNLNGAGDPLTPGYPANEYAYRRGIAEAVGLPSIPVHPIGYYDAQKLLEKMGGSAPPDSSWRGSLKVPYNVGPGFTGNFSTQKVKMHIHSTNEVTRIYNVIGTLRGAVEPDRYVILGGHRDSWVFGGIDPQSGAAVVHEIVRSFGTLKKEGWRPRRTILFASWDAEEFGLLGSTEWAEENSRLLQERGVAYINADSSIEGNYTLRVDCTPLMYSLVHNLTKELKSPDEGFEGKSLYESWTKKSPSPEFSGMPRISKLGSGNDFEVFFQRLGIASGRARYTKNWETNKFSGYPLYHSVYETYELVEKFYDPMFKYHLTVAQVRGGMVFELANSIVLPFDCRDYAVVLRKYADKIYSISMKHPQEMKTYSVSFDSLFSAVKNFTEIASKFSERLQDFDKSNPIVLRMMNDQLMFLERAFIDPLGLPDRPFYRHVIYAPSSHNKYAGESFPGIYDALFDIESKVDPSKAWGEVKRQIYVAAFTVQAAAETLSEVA
T4 sequence (Q04609 44-750): as the sequence (Q04609 44-750 limits assumed) above
T5 sequence (O35409 45-752): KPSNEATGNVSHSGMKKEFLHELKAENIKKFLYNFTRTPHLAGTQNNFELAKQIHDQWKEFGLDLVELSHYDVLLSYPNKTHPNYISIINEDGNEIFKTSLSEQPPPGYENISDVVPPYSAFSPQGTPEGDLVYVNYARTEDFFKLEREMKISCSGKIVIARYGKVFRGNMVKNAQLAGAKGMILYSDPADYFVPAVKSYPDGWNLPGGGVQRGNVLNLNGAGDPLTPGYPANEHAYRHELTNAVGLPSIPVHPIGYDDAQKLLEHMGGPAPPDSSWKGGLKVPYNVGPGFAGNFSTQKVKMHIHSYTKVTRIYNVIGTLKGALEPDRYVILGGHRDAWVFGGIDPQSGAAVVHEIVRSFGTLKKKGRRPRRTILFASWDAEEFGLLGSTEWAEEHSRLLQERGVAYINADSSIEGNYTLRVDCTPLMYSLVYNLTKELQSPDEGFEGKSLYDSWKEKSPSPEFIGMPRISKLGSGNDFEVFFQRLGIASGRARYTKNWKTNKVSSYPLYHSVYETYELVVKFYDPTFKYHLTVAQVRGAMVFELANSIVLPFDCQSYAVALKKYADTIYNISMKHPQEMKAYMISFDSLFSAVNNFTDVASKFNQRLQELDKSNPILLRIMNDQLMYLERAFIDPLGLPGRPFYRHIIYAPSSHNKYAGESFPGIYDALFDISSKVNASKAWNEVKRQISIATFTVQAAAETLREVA

B1: W308051-T3U5.E17-61.uIgG4V322 (bispecific antibody)
heavy 1: QVQLVQSGAEVKKPGSSVKVSCKASGFAFTDYYIHWVRQAPGQGLEWMGWISPGNVNTKYNENFKGRVTITADKSTSTAYMELSSLRSEDTAVYYCARDGYSLYYFDYWGQGTLVTVLEDLKNVFPPEVAVFEPSECEISHTQKATLVCLATGFYPDHVELSWWVNGKEVHSGVCTDPQPLKEQPALQDSRYALSSRLRVSATFWQNPRNHFRCQVQFYGLSENDEWTQDRAKPVTQIVSAEAWGRYGPPCPPCPAPEAAGGPSVFLFPPKPKDTLMISRTPEVTCVVVDVSQEDPEVQFNWYVDGVEVHNAKTKPREEQFNSTYRVVSVLTVLHQDWLNGKEYKCKVSNKGLPSSIEKTISKAKGQPREPQVYTLPPCQEEMTKNQVSLWCLVKGFYPSDIAVEWESNGQPENNYKTTPPVLDSDGSFFLYSRLTVDKSRWQEGNVFSCSVMHEALHNHYTQKSLSLSLG
light 1: DIVMTQSPDSLAVSLGERATINCKSSQSLLNSRTRKNYLAWYQQKPGQPPKLLIYWASTRQSGVPDRFSGSGSGTDFTLTISSLQAEDVAVYYCTQSHTLRTFGGGTKVEIKPDIQNPDPAVYQLRDSKSSDKSVCLFTDFDSQTQVSQSKDSDVYITDKCVLDMRSMDFKSNSAVAWSQKSDFACANAFQNSIIPEDTFFCS
heavy 2: EVQLVQSGAEVKKPGESLKISCKASGYSFTTYWIGWVRQMPGKGLELMGIIYPYDSDTRYSPSFQGQVTISADKSINTAYLQWSSLKASDTAMYYCARITGGYLFDYWGQGILVTVSSASTKGPSVFPLAPCSRSTSESTAALGCLVKDYFPEPVTVSWNSGALTSGVHTFPAVLQSSGLYSLSSVVTVPSSSLGTKTYTCNVDHKPSNTKVDKRVESKYGPPCPPCPAPEAAGGPSVFLFPPKPKDTLMISRTPEVTCVVVDVSQEDPEVQFNWYVDGVEVHNAKTKPREEQFNSTYRVVSVLTVLHQDWLNGKEYKCKVSNKGLPSSIEKTISKAKGQPREPQVCTLPPSQEEMTKNQVSLSCAVKGFYPSDIAVEWESNGQPENNYKTTPPVLDSDGSFFLVSRLTVDKSRWQEGNVFSCSVMHEALHNHYTQKSLSLSLG
light 2: QSALTQPPSASGSPGQSVTISCTGTSSDVGGYNYVSWYQQHPGKAPKLMIYEVTKRPSGVPDRFSGSKSGNTASLTVSGLQAEDEADYYCTSYAGSNKYVFGTGTKVTVLGQPKAAPSVTLFPPSSEELQANKATLVCLISDFYPGAVTVAWKADSSPVKAGVETTTPSKQSNNKYAASSYLSLTPEQWKSHKSYSCQVTHEGSTVEKTVAPTECS
notes: CD3xPSMA bispecific; also called WBP308051
Broadly, the EC50 is the concentration giving half of the maximal effect. A high value points to a less potent agent. The term Kd denotes the equilibrium constant for the complex coming apart. Low readings indicate higher affinity, high ones lower affinity. In general, koff refers to the rate constant with which the complex falls apart. Higher therefore signals fast dissociation. As usually defined, the kon is the second-order rate constant of association. Higher therefore signals faster complex formation. Regarding B1, the EC50 in [1] stood at 0.05 nM; in test [2], 1.48 nM; in [4], 0.03 nM; in [5] it was 1.34 nM; in test [7] it was 0.29 nM; in test [8], 3.2 nM. Further, the figures for the EC50 in test [10], in test [12] and in [13] were 0.58 nM, 0.027 nM and 0.045 nM, respectively. Further, the dissociation constant Kd is 0.0158 nM in [3] and 60.2 nM in test [9]. Besides, the figures for the koff in test [3] and in test [9] were 1.39e-05 s⁻¹ and 0.0331 s⁻¹, respectively. Also, the kon in test [3] turned out to be 880000 M⁻¹ s⁻¹; in test [9], 550000 M⁻¹ s⁻¹. Also, the “EC50 of IFN-γ release, CD3+ T + C4-2” value in [6] is around 0.16 nM. The “IC50 of T cell cytotoxicity, CD3+ T + C4-2” value in test [11] was 0.082 nM. Moreover, in test [11], the “IC50 of T cell cytotoxicity, CD3+ T + LNCaP” value worked out at 0.037 nM.
